This is an account of results in US20150031754, “APTAMER MODULATORS OF ESTROGEN RECEPTORS” (RESEARCH FOUNDATION OF STATE UNIVERSITY OF NEW YORK AT …, published 2015).

The target of data set [1] is T1, hERα DNA-binding domain (Homo sapiens, UniProt P03372 P03372:180-268). In words: EMSA; also no binding in filter assay. Particulars: tags: N-terminal His6; E. coli BL21(DE3); label: 32P-CTP internal. The protocol: (§1) No binding activity to RNase inhibitor (control) or DBD & RNase inhibitor was detected. The binding reactions were resolved on the same type of gel as above. […] End-radiolabeled ERE-50mer at 5 nM was mixed with 100× or 400× more concentrated unlabeled competitors ERE-50mer, AptER-1, -2 and -3 RNA or an early generation pool in hERα selection G1 before addition of hERα (40 nM). Only cold ERE-50mer disrupted radioactive ERE-hERα complex.
(§2) Class I aptamers bound with similar affinities to both subtypes of ER, which share the highest homology (96%) in the DBD. This raised the possibility that the target site of Class I aptamers was located within the DBD. Whether the aptamers bind to the DBD was tested in binding assays using a recombinant hERα-DBD. It was expressed as a His₆-tagged fusion protein in E. coli BL21 (DE3) and purified as described in the Materials and Methods. To verify its ERE-binding capability, a DNA EMSA was performed. DNA oligo ERE-50mer contains a GAAA tetra loop, which forces the oligo to form a hairpin. A copy of Xenopus laevis vitellogenin A2 ERE (5′-[…]-3′, SEQ ID NO: 73) was presented in the stem of a hairpin. […] However, in both EMSA (FIG. 11B) and filter-binding assay, no association was detected between AptER-1 and DBD. […]
For orientation: Mobility shift assays separate free from complexed probe on a gel.

For data set [2], the target named is hERα ligand-binding domain (Homo sapiens, UniProt P03372 P03372:282-595). The data set can be described thus: EMSA; 100 nM protein, 2.5 nM RNA. As to conditions: tags: GST fusion, baculovirus/insect cells, Invitrogen PV4543, label: 32P-CTP internal. The protocol:
Human ERα was incubated with ligands (40 nM to 5 μM E2 or OHT) or vehicle control (EtOH) at 37° C. for 10 min before addition of RNA. Regardless of the absence or presence of the ligands, hERα formed a complex with AptER-1 in the same way. In FIG. 12B, the ligand competition assays showing that the interaction between AptER-4 and hERα was not intervened by ligand-binding. Human ERα was incubated with 1 μM E2 or vehicle control (EtOH) before addition of AptER-4. Regardless of the absence or presence of the ligands, hERα formed a complex with AptER-4 in the same way. […] Proteins were 100 nM. In the presence of hERα, both aptamers were shifted. No binding activity to GST/hERα-LBD was detected.
Whether the aptamers bind to LBD was examined in two ways. One approach was an EMSA to directly examine whether the aptamers bound to the GST/hERα-LBD construct. The recombinant human ERα-LBD purchased from Invitrogen was expressed as a GST-tagged fusion protein in baculovirus-infected insect cells. It contains amino acid 282 to 595 of hERα, with a calculated molecular weight of 62.80 kDa protein. According to the manufacturer's instruction, the concentration of functional receptor was determined by quantification of estrodial, [6, 7-³H9(N)] receptor complexes using a hydroxyapatite (HAP) assay. Binding reactions were set up with 2.5 nM radiolabeled aptamers and 100 nM protein. […]

Data set [3] has as its target T2, Human estrogen receptor alpha (hERα), full-length, unliganded (Homo sapiens, UniProt P03372 P03372:1-595). In words: FP; filter-binding assay (nitrocellulose), 12 mM HEPES pH 7.6, 150 mM NaCl, 10 mM MgCl2, 37 C; Hill coefficient about 1. Particulars: tags: none stated; baculovirus/insect cells; Invitrogen P2187 or EMD4 Biosciences 330655; label: 32P-CTP internal. The protocol:
(§3) The dissociation constant (Kd) of the AptER-1, -2, -3, and -4 were measured using a nitrocellulose filter binding assay. A constant trace amount of [γ-³²P]-CTP incorporated RNA aptamer (˜0.1 nM) was titrated with increasing amounts of the target protein ranging from 5 to 150 nM. The binding activity at each concentration was determined as % binding, by calculating the radioactive signal of the RNA-protein complex retained on the filter as a percentage of the signal at the highest protein concentration (saturated) used. The assays were performed in triplicates for each aptamer. A binding curve was constructed using Sigma Plot 9.0.1, with average binding affinity (% binding) as a function of the protein concentration using a sigmoidal equation (Hill equation, 3 parameters). Apparent Kd was the protein concentration where half of the maximal binding activity was achieved, and were calculated from the data points by using Sigma Plot. […] The first 3 aptamers were isolated in in vitro selection I, and their affinity rank explains the relative abundance in the final selected library. More specifically, it is believed that AptER-1 dominated the final selected pool because it was the strongest binder. AptER-4 was the weakest binder, and would not have been easily identified in the selection I libraries.

For data set [4], the target named is T3, Human estrogen receptor beta (hERβ) (Homo sapiens, UniProt Q92731 Q92731:1-530). The data set can be described thus: filter; text prints hERα for this 26 nM value but context compares with hERβ (probable typo). As to conditions: tags: none stated; baculovirus/insect cells; EMD4 Biosciences 330657; label: 32P-CTP internal. On the procedure: as §3, with “A” for “The dissociation constant (Kd) of the AptER-1, -2, -3, and -4 were measured using a nitrocellulose filter binding assay. A”, “libraries. […]” for “libraries.”

In data set [5] the target is T2, Human estrogen receptor alpha (hERα), …. In words: EMSA; about half shifted below 15 nM; more than two-fold stronger than monomer. As to conditions: tags: none stated; baculovirus/insect cells; Invitrogen P2187 or EMD4 Biosciences 330655; label: 32P-CTP internal; two AptER-1(53nt) units on three-way junction of H. marismortui 5S RNA.
The target of data set [6] is T1, hERα DNA-binding domain. The data set can be described thus: EMSA; 100-400 nM DBD, 5 nM DNA. As to conditions: tags: N-terminal His6; E. coli BL21(DE3); label: 5'-32P; hairpin with GAAA tetraloop, ERE in stem. The protocol: as §1, §2
Data set [7] has as its target T2, Human estrogen receptor alpha (hERα), …. The data set can be described thus: EMSA; not competed by AptER-1, -2, -3 or -4; competed by cold ERE. As to conditions: tags: none stated; baculovirus/insect cells; Invitrogen P2187 or EMD4 Biosciences 330655; label: 5'-32P; hairpin with GAAA tetraloop, ERE in stem. The protocol: as §1
Whether the aptamers bind to the DNA binding site on the full-length hERα was tested in cross-competition assays using ERE-50mer as a specific competitor. Radiolabeled ERE-50mer was competed with 100× or 400× more concentrated nonradioactive competitors ERE-50mer, AptER-1, -2, -3 or Generation 1 pool of hERα selection G1 (see Example 1). Radiolabeled ERE-50mer at 5 nM was mixed with the competitors before the addition of hERα at 50 nM. The binding reaction was set up as described in the Materials and Methods, and electrophorised in a 4.8% polyacrylamide gel (acrylamide:bis-acrylamide=50:1) in ½ ΔTGB. ERE-50mer served as a positive control of competition, whereas the G1 pool was a negative control. […] This agreed with the result from a second cross-competition assay between radiolabeled AptER-1 and unlabeled ERE-50mer for binding to human ERα (FIG. 9A).

The target is the same in data set [8]. The data set can be described thus: EMSA; 10 mM MgCl2, 37 C binding. Particulars: tags: none stated; baculovirus/insect cells; Invitrogen P2187 or EMD4 Biosciences 330655; label: 32P internal; stem-loop.
Data set [9] has the same target. In words: filter; same buffer, 37 C; Hill n>1. As to conditions: tags: none stated; baculovirus/insect cells; Invitrogen P2187 or EMD4 Biosciences 330655; label: 32P-CTP internal; predicted three-way junction with two long hairpins. On the procedure:
as §3

Data set [10] has as its target T1, hERα DNA-binding domain. The data set can be described thus: DBD binding assay, method not specified. Particulars: tags: N-terminal His6; E. coli BL21(DE3); label: 32P-CTP internal; predicted three-way junction with two long hairpins.
For data set [11], the target named is T3, Human estrogen receptor beta (hERβ). The data set can be described thus: filter; affinity for hERβ too low to be determined. As to conditions: tags: none stated; baculovirus/insect cells; EMD4 Biosciences 330657; label: 32P-CTP internal; predicted three-way junction with two long hairpins.

T1 sequence (P03372 180-268, one chain of several): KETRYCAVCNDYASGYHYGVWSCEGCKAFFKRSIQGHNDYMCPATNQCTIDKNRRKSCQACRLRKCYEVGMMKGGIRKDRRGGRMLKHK
T2 sequence (P03372 whole entry, one chain of several): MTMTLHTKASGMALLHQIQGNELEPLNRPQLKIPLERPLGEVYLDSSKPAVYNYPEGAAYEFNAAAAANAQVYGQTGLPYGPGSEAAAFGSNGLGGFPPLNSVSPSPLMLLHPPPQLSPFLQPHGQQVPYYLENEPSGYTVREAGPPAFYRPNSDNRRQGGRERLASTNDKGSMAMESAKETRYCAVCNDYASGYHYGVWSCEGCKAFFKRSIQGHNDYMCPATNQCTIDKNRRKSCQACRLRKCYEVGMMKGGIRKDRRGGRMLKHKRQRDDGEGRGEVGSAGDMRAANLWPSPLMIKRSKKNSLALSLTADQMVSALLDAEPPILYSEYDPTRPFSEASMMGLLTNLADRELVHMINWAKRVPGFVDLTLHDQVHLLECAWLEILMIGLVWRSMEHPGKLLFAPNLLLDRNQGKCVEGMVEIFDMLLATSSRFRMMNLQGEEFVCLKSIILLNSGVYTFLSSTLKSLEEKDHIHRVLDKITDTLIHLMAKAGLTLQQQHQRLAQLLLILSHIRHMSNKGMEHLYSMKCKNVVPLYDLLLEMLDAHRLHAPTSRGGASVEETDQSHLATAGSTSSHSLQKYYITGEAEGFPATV
T3 sequence (Q92731 whole entry, one chain of several): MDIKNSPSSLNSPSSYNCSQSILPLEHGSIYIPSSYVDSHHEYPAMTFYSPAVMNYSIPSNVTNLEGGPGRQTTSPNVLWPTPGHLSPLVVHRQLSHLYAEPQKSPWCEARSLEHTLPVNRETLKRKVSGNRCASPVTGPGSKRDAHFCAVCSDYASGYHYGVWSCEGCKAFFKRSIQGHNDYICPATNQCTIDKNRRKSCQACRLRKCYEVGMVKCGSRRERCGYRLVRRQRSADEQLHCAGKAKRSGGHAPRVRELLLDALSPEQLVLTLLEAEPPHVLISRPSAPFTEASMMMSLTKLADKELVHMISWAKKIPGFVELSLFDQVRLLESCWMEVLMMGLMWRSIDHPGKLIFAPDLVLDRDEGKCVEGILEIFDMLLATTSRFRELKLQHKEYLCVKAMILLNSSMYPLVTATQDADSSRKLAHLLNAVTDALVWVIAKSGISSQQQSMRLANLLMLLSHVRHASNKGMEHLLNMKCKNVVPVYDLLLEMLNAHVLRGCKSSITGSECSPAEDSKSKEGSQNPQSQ
Sequence of hERα ligand-binding domain (P03372 282-595, one chain of several): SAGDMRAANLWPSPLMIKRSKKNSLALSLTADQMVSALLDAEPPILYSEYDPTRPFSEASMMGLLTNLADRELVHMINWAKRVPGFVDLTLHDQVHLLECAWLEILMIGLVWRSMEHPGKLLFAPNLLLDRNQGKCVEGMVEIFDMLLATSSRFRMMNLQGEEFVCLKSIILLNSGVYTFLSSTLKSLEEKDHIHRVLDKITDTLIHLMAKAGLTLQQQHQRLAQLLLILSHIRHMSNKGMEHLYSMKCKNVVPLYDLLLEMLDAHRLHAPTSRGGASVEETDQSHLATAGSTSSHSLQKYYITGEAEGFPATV

B1: AptER-1 (clone B63) (ssRNA)
RNA: GGGAGAAUUCAACUGCCAUCUAGGCCCACAGUUCAGAGGCACCGCGAACAAAACGCAAGACAGAGUGCCGACAAGAGCACUACAAGCUUCUGGACUCGGU
What is called Kd is the constant that tells how readily two partners part at equilibrium. For the molecule B1, the binding result in [1] and in data set [2] was “no binding” throughout. Besides, the Kd in data set [3] was around 16 nM; in [4], around 26 nM.

B2: AptER-1x2(138nt) dimer (ssRNA)
RNA: GGAUCCGUGACGGGCACCGCGAACAAAACGCAAGACAGAGUGCCGACAAGAGCACUACAAGCCCGUCCAUACUCCGGCACCGCGAACAAAACGCAAGACAGAGUGCCGACAAGAGCACUAACAGCCGGAGGCGGAUCC
Consider B2, for which the Kd in data set [5] was below 15 nM.

B3: ERE-50mer (structured_DNA)
DNA: AGTCAGGTCACAGTGACCTGATCGAAAGATCAGGTCACTGTGACCTGACT
For B3, the binding result in data set [6] and in data set [7] was “binds” throughout.

B4: AptER-1(65nt) (sB63) (ssRNA)
RNA: GGGCAGAGGCACCGCGAACAAAACGCAAGACAGAGUGCCGACAAGAGCACUACAAGCUUCUGCCC
Consider B4, for which the Kd in data set [8] is around 30 nM.

B5: AptER-4 (ssRNA)
RNA: GGGAGAAUUCAACUGCCAUCUAGGCCACAGCCGGCGGUCGAACACCAGAGGGCGACUUUGGGUAGUCGAGUAUUAAGUACUACAAGCUUCUGGACUCGGU
As for B5, the binding result in data set [2] (predicted three-way junction with two long hairpins), in data set [10] and in [11] was “no binding” in each case. Further, in data set [9], the Kd is around 45 nM.
